Results published in publication PMC4920709.

Biological target: Proprotein Convertase Subtilisin/Kexin type 9 (PCSK9), human plasma (human (endogenous in plasma)) (UniProt Q8NBP7)
UniProt Q8NBP7, sequence (Q8NBP7 153-692): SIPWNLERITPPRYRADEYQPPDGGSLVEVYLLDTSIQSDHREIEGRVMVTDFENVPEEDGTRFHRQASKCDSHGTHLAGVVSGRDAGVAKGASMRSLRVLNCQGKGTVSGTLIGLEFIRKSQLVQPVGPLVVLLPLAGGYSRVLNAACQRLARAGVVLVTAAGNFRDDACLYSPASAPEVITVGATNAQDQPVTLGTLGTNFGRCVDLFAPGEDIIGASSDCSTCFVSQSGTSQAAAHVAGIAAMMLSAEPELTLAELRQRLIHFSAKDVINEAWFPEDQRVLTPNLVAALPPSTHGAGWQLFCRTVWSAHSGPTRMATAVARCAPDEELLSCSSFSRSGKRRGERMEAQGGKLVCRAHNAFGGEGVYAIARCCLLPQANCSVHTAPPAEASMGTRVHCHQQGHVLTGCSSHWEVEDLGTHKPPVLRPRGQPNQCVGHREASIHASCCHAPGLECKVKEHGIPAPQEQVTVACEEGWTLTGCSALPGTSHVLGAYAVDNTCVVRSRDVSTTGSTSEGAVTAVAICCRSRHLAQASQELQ

percent of plasma PCSK9 associated with apoB: 37%
Substance: apolipoprotein B-100 (apoB-100) of human plasma LDL and Lp(a) (from UniProt P04114 28-4563) (natural protein)
